B1: Caspase drICE (Drosophila melanogaster (Fruit fly)), O01382 (parent)
chain: MDATNNGESADQVGIRVGNPEQPNDHTDALGSVGSGGAGSSGLVAGSSHPYGSGAIGQLANGYSSPSSSYRKNVAKMVTDRHAAEYNMRHKNRGMALIFNHEHFEVPTLKSRAGTNVDCENLTRVLKQLDFEVTVYKDCRYKDILRTIEYAASQNHSDSDCILVAILSHGEMGYIYAKDTQYKLDNIWSFFTANHCPSLAGKPKLFFIQACQGDRLDGGVTMQRSQTETDGDSSMSYKIPVHADFLIAYSTVPGFYSWRNTTRGSWFMQSLCAELAANGKRLDILTLLTFVCQRVAVDFESCTPDTPEMHQQKQIPCITTMLTRILRFSDKQLAPAGRV
partner: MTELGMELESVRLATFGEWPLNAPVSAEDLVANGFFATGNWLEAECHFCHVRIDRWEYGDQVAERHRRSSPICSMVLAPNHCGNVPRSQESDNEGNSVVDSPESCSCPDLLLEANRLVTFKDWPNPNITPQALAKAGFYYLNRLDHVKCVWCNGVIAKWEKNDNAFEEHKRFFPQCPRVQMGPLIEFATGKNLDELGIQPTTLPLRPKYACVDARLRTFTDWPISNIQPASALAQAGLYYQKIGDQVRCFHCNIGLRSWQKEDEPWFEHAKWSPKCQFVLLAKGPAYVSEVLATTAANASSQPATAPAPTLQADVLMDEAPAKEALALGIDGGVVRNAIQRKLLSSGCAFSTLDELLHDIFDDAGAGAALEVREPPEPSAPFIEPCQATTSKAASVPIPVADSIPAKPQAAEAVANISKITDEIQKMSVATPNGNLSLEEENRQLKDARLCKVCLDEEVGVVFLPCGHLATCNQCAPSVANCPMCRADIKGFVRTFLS
B2: Death-associated inhibitor of apoptosis 2 (Drosophila melanogaster (Fruit fly)), Q24307 (parent)
chain: B1 partner
partner: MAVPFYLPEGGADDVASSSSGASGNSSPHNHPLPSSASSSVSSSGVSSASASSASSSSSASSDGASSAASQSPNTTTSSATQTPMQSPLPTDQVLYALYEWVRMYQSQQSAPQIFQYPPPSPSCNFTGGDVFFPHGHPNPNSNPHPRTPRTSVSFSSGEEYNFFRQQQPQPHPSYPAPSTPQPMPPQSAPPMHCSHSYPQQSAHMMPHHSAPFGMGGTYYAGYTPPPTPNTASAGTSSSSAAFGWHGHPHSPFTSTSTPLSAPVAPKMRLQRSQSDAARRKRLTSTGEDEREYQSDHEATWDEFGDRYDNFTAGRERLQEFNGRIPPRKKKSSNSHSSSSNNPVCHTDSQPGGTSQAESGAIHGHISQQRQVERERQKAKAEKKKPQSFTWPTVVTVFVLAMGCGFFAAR
B3: Death-associated inhibitor of apoptosis 2 (Drosophila melanogaster (Fruit fly)), Q24307 (parent)
chain: B1 partner
partner: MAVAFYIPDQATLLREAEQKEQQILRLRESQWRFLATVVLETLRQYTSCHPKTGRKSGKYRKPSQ

Variants of: B1
Settings: with diap2_drome Diap2, Q24307
With MDATNNGESADQVGIRVGNPEQPNDHTDVLGSVGSGGAGSSGLVAGSSHPYGSGAIGQLANGYSSPSSSYRKNVAKMVTDRHAAEYNMRHKNRGMALIFNHEHFEVPTLKSRAGTNVDCENLTRVLKQLDFEVTVYKDCRYKDILRTIEYAASQNHSDSDCILVAILSHGEMGYIYAKDTQYKLDNIWSFFTANHCPSLAGKPKLFFIQACQGDRLDGGVTMQRSQTETDGDSSMSYKIPVHADFLIAYSTVPGFYSWRNTTRGSWFMQSLCAELAANGKRLDILTLLTFVCQRVAVDFESCTPDTPEMHQQKQIPCITTMLTRILRFSDKQLAPAGRV [A29V] the “effect of a mutation on the interaction” value was “decreasing interaction strength”.

Variants of: B2
Settings: with hid_drome hid
In the case of MTELGMELESVRLATFGEWPLNAPVSAEDLVANGFFATGNWLEAEGHFCHVRIDRWEYGDQVAERHRRSSPICSMVLAPNHCGNVPRSQESDNEGNSVVDSPESCSCPDLLLEANRLVTFKDWPNPNITPQALAKAGFYYLNRLDHVKCVWCNGVIAKWEKNDNAFEEHKRFFPQCPRVQMGPLIEFATGKNLDELGIQPTTLPLRPKYACVDARLRTFTDWPISNIQPASALAQAGLYYQKIGDQVRCFHCNIGLRSWQKEDEPWFEHAKWSPKCQFVLLAKGPAYVSEVLATTAANASSQPATAPAPTLQADVLMDEAPAKEALALGIDGGVVRNAIQRKLLSSGCAFSTLDELLHDIFDDAGAGAALEVREPPEPSAPFIEPCQATTSKAASVPIPVADSIPAKPQAAEAVANISKITDEIQKMSVATPNGNLSLEEENRQLKDARLCKVCLDEEVGVVFLPCGHLATCNQCAPSVANCPMCRADIKGFVRTFLS [C46G], the “effect of a mutation on the interaction” value is reported as “with no effect”.

Variants of: B3
Settings: with rpr_drome rpr
In the case of MTELGMELESVRLATFGEWPLNAPVSAEDLVANGFFATGNWLEAECHFCHVRIDRWEYGDQVAERHRRSSPICSMVLAPNHCGNVPRSQESDNEGNSVVDSPESCSCPDLLLEANRLVTFKDWPNPNITPQALAKAGFYYLNRLDHVKGVWCNGVIAKWEKNDNAFEEHKRFFPQCPRVQMGPLIEFATGKNLDELGIQPTTLPLRPKYACVDARLRTFTDWPISNIQPASALAQAGLYYQKIGDQVRCFHCNIGLRSWQKEDEPWFEHAKWSPKCQFVLLAKGPAYVSEVLATTAANASSQPATAPAPTLQADVLMDEAPAKEALALGIDGGVVRNAIQRKLLSSGCAFSTLDELLHDIFDDAGAGAALEVREPPEPSAPFIEPCQATTSKAASVPIPVADSIPAKPQAAEAVANISKITDEIQKMSVATPNGNLSLEEENRQLKDARLCKVCLDEEVGVVFLPCGHLATCNQCAPSVANCPMCRADIKGFVRTFLS [C149G], the “effect of a mutation on the interaction” value is reported as “decreasing interaction strength”. In the case of MTELGMELESVRLATFGEWPLNAPVSAEDLVANGFFATGNWLEAECHFCHVRIDRWEYGDQVAERHRRSSPICSMVLAPNHCGNVPRSQESDNEGNSVVDSPESCSCPDLLLEANRLVTFKDWPNPNITPQALAKAGFYYLNRLDHVKCVWCNGVIAKWEKNDNAFEEHKRFFPQCPRVQMGPLIEFATGKNLDELGIQPTTLPLRPKYACVDARLRTFTDWPISNIQPASALAQAGLYYQKIGDQVRGFHCNIGLRSWQKEDEPWFEHAKWSPKCQFVLLAKGPAYVSEVLATTAANASSQPATAPAPTLQADVLMDEAPAKEALALGIDGGVVRNAIQRKLLSSGCAFSTLDELLHDIFDDAGAGAALEVREPPEPSAPFIEPCQATTSKAASVPIPVADSIPAKPQAAEAVANISKITDEIQKMSVATPNGNLSLEEENRQLKDARLCKVCLDEEVGVVFLPCGHLATCNQCAPSVANCPMCRADIKGFVRTFLS [C249G], the “effect of a mutation on the interaction” value is reported as “with no effect”. With MTELGMELESVRLATFGEWPLNAPVSAEDLVANGFFATGNWLEAEGHFCHVRIDRWEYGDQVAERHRRSSPICSMVLAPNHCGNVPRSQESDNEGNSVVDSPESCSCPDLLLEANRLVTFKDWPNPNITPQALAKAGFYYLNRLDHVKCVWCNGVIAKWEKNDNAFEEHKRFFPQCPRVQMGPLIEFATGKNLDELGIQPTTLPLRPKYACVDARLRTFTDWPISNIQPASALAQAGLYYQKIGDQVRCFHCNIGLRSWQKEDEPWFEHAKWSPKCQFVLLAKGPAYVSEVLATTAANASSQPATAPAPTLQADVLMDEAPAKEALALGIDGGVVRNAIQRKLLSSGCAFSTLDELLHDIFDDAGAGAALEVREPPEPSAPFIEPCQATTSKAASVPIPVADSIPAKPQAAEAVANISKITDEIQKMSVATPNGNLSLEEENRQLKDARLCKVCLDEEVGVVFLPCGHLATCNQCAPSVANCPMCRADIKGFVRTFLS [C46G] the “effect of a mutation on the interaction” value was “with no effect”. With MTELGMELESVRLATFGEWPLNAPVSAEDLVANGFFATGNWLEAECHFCHVRIDRWEYGDQVAERHRRSSPICSMVLAPNHCGNVPRSQESDNEGNSVVDSPESCSCPDLLLEANRLVTFKDWPNPNITPQALAKAGFYYLNRLDHVKGVWCNGVIAKWEKNDNAFEEHKRFFPQCPRVQMGPLIEFATGKNLDELGIQPTTLPLRPKYACVDARLRTFTDWPISNIQPASALAQAGLYYQKIGDQVRGFHCNIGLRSWQKEDEPWFEHAKWSPKCQFVLLAKGPAYVSEVLATTAANASSQPATAPAPTLQADVLMDEAPAKEALALGIDGGVVRNAIQRKLLSSGCAFSTLDELLHDIFDDAGAGAALEVREPPEPSAPFIEPCQATTSKAASVPIPVADSIPAKPQAAEAVANISKITDEIQKMSVATPNGNLSLEEENRQLKDARLCKVCLDEEVGVVFLPCGHLATCNQCAPSVANCPMCRADIKGFVRTFLS [C149G;C249G] the “effect of a mutation on the interaction” value was “decreasing interaction strength”.

— IntAct's records for PubMed 18166655
